The values that follow come from paper PMC9023288, “The Burkholderia cenocepacia iron starvation σ factor, OrbS, possesses an on-board iron sensor” (Nucleic Acids Research, 2022).

Several values for one entry are separate records, joined by “and”; a condition that tells them apart may be missing. Identical values can stand only once.

Assay [1] has as its target His-tagged OrbS-CtetraA (OrbS with all four C-terminal cysteine residues replaced by alanine). The experiment in a line: BLI. (BLI is a label-free optical method that tracks binding on a fibre tip over time.)
The target in assay [2] is T1, E. coli core RNA polymerase (core RNAP, α2ββ'ω) (E. coli, UniProt P0A7Z4 1-329; P0A8V2 1-1342; P0A8T7 1-1407; P0A800 1-91).
T1 construct: RNA polymerase subunit alpha, E. coli; RNA polymerase subunit beta, E. coli; RNA polymerase subunit beta', E. coli; RNA polymerase subunit omega, E. coli; Commercial core enzyme (NEB); also called E. coli RNAP core enzyme; core E. coli RNAP; source: bought: NEB; copies: 2 + + +
The experiment in a line: BLI. Particulars: both partners purified.

Usually Kd stands for the free concentration of one partner at which half of the binding sites on the other are occupied at equilibrium, for simple one-to-one binding. A higher Kd goes with lower affinity. The term kon denotes a measure of how fast the partners come together. Read a low kon as slow association. For the molecule “E. coli core RNA polymerase (core RNAP, α2ββ'ω) (from UniProt P0A7Z4 1-329; P0A8V2 1-1342; P0A8T7 1-1407; P0A800 1-91) (complex)”, in assay [1], the Kd is 20 nM and 160 nM; the on-rate constant (kon) is 15000 M⁻¹ s⁻¹ and 9100 M⁻¹ s⁻¹.

B1: His-tagged Burkholderia cenocepacia OrbS (iron starvation ECF σ factor) (natural protein, UniProt B4E986 1-222, looked up)
chain: MAMAEVLDRPAAAAANPFLGSYPDLPPRAAPRARRASEPRAQGALLDVLISHRAMLVNVARGFVGCASRAEDVVHDVFVKLVEFPNQDAVRQPVAYVTRMVRNASIDACRRQNLENVYHTEEDDGFDVPSPEPTPEAALMTRDTLRRVWAALDDLPARSRAAFEMVRLREETLQTAARALNVSQTLVHFMVRDAERHCAECLDACHRGVACPVFLGGRARRR
notes: also called σ^OrbS; BCAL1688
As usually defined, the koff is the first-order rate constant of dissociation. The low end stands for slow dissociation, the high end for fast dissociation. In assay [2], B1 showed a Kd of 83 nM, a koff of 0.00045 s⁻¹ and a kon of 5400 M⁻¹ s⁻¹.
